The target in test [1] is human PD-L1 (full-length, expressed on transfected Expi293F cells) (human) (UniProt Q9NZQ7). The test can be described thus: flow cytometry, transfected Expi293 cells. In general terms: In flow cytometry, cells or beads pass a laser one at a time.
In test [2] the target is human CD28 (full-length, expressed on transfected Expi293F cells) (human) (UniProt P10747). Put plainly: flow cytometry, transfected Expi293 cells.
In test [3] the target is human PD-L1, full-length, expressed on Expi293F cells (human) (UniProt Q9NZQ7). The test can be described thus: flow cytometry, Expi293 cells expressing human PD-L1.
Test [4] has as its target human PD-L1 (full-length, expressed on transfected Expi293F cells) (human) (UniProt Q9NZQ7). Put plainly: flow cytometry; ratio to WT parental stack.
Test [5] concerns the target human CD28 (full-length, expressed on transfected Expi293F cells) (human) (UniProt P10747). Put plainly: flow cytometry; ratio to WT parental stack.
The target of test [6] is human CTLA4, full-length, expressed on Expi293F cells (human) (UniProt P16410). The test can be described thus: flow cytometry, Expi293 cells expressing human CTLA-4.
Chain of UniProt P16410 (P16410 36-223): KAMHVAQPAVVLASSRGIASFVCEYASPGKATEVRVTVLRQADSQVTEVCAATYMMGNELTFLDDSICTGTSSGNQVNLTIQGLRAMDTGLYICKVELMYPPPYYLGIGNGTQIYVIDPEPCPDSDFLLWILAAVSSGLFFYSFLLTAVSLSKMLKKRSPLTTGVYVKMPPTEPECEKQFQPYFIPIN
The target in test [7] is human CD28 (full-length, expressed on transfected Expi293F cells) (human) (UniProt P10747). The test can be described thus: flow cytometry; ratio to WT ICOSL ECD-Fc.

Molecule “ICOSL WT / CD80 WT stacked IgV-Fc (Fc fusion)” gave an MFI in test [1] of 2970 MFI.

In test [2], “NKp30 WT / ICOSL WT stacked IgV-Fc (Fc fusion)” yielded an MFI of 6340 MFI.

Take “ICOSL WT / Nkp30 WT stacked IgV-Fc (Fc fusion)”: the MFI in test [2] worked out at 7920 MFI.

As for CD80 variant A91G/S103P ECD-Fc fusion, in test [3], the MFI is 9 MFI and the MFI parental ratio (fold of WT CD80) is 0.13.

The molecule “NKp30 WT / CD86 WT stacked IgV-Fc (Fc fusion)” returned an MFI in test [2] of 1690 MFI.

With “CD80 WT / CD80 WT stacked IgV-Fc (Fc fusion)”, in test [2], the MFI was determined as 1630 MFI.

“CD80 WT / CD86 WT stacked IgV-Fc (Fc fusion)” gave an MFI in test [1] of 2080 MFI.

“CD86 Q35H/H90L/Q102H / CD80 A12T/H18L/N43V/F59L/E77K/P109S/I118T stacked IgV-Fc (Fc fusion)”: in test [4], the WT parental MFI ratio worked out at 1.39. For the same molecule, the MFI in test [1] is 2110 MFI.

In the case of “CD80 WT / ICOSL WT stacked IgV-Fc (Fc fusion)”, the figures for the MFI in test [2] and in test [1] were 1230 MFI and 2660 MFI, respectively.

As to “CD80 I67T/L70Q/A91G/T120S / CD80 E88D/K89R/D90K/A91G/F92Y/K93R stacked IgV-Fc (Fc fusion)”, the WT parental MFI ratio in test [5] was determined as 0.57. In test [2], the MFI was 938 MFI.

B1: CD80 variant L70Q/A91G/T110A/T120S/T130A ECD-Fc fusion (Fc fusion)
chain: VIHVTKEVKEVATLSCGHNVSVEELAQTRIYWQKEKKMVLTMMSGDMNIWPEYKNRTIFDITNNLSIVIQALRPSDEGTYECVVLKYEKDGFKREHLAEVTLSVKADFPAPSISDFEIPSSNIRRIICSASGGFPEPHLSWLENGEELNAINTTVSQDPETELYAVSSKLDFNMTTNHSFMCLIKYGHLRVNQTFNWNTTKQEHFPDNAAAEPKSSDKTHTCPPCPAPELLGGPSVFLFPPKPKDTLMISRTPEVTCVVVDVSHEDPEVKFNWYVDGVEVHNAKTKPCEEQYGSTYRCVSVLTVLHQDWLNGKEYKCKVSNKALPAPIEKTISKAKGQPREPQVYTLPPSREEMTKNQVSLTCLVKGFYPSDIAVEWESNGQPENNYKTTPPVLDSDGSFFLYSKLTVDKSRWQQGNVFSCSVMHEALHNHYTQKSLSLSPGK
B1: in test [6], the MFI came to 14 MFI and the MFI parental ratio (fold of WT CD80) turned out to be 0.07.

B2: CD80 variant V20L/L70Q/A91S/T120S/T130A ECD-Fc fusion (Fc fusion)
chain: VIHVTKEVKEVATLSCGHNLSVEELAQTRIYWQKEKKMVLTMMSGDMNIWPEYKNRTIFDITNNLSIVIQALRPSDEGTYECVVLKYEKDSFKREHLAEVTLSVKADFPTPSISDFEIPSSNIRRIICSASGGFPEPHLSWLENGEELNAINTTVSQDPETELYAVSSKLDFNMTTNHSFMCLIKYGHLRVNQTFNWNTTKQEHFPDNAAAEPKSSDKTHTCPPCPAPELLGGPSVFLFPPKPKDTLMISRTPEVTCVVVDVSHEDPEVKFNWYVDGVEVHNAKTKPCEEQYGSTYRCVSVLTVLHQDWLNGKEYKCKVSNKALPAPIEKTISKAKGQPREPQVYTLPPSREEMTKNQVSLTCLVKGFYPSDIAVEWESNGQPENNYKTTPPVLDSDGSFFLYSKLTVDKSRWQQGNVFSCSVMHEALHNHYTQKSLSLSPGK
Regarding B2, in test [3], the MFI is 9 MFI and the MFI parental ratio (fold of WT CD80) worked out at 0.13.

B3: ICOSL variant ECD-Fc F120S/Y152H/N201S (Fc fusion)
chain: DTQEKEVRAMVGSDVELSCACPEGSRFDLNDVYVYWQTSESKTVVTYHIPQNSSLENVDSRYRNRALMSPAGMLRGDFSLRLFNVTPQDEQKFHCLVLSQSLGFQEVLSVEVTLHVAANSSVPVVSAPHSPSQDELTFTCTSINGYPRPNVHWINKTDNSLLDQALQNDTVFLNMRGLYDVVSVLRIARTPSVNIGCCIESVLLQQNLTVGSQTGNDIGERDKITENPVSTGEKNAATAAAEPKSSDKTHTCPPCPAPELLGGPSVFLFPPKPKDTLMISRTPEVTCVVVDVSHEDPEVKFNWYVDGVEVHNAKTKPCEEQYGSTYRCVSVLTVLHQDWLNGKEYKCKVSNKALPAPIEKTISKAKGQPREPQVYTLPPSREEMTKNQVSLTCLVKGFYPSDIAVEWESNGQPENNYKTTPPVLDSDGSFFLYSKLTVDKSRWQQGNVFSCSVMHEALHNHYTQKSLSLSPGK
Regarding B3, the MFI parental ratio in test [7] is 0.89.

The values are drawn from patent US20180256644A1.
